For two substances, 1 kb Inversion (targeted fragment inversion in transgenic maize plants) and targeted inversion frequency among the 13 plants in which both targets were edited results are on record in patent US20250382598A1.

Values joined by “and” are separate entries in the source; they are usually repeats but may differ in a detail not shown here. Equal entries are not always repeated.

Assay [1] deals with LbCas12a-scTrex2 fusion (single-chained Trex2 homodimer at the C-terminus; construct 27433) (Simian virus 40; Lachnospiraceae bacterium ND2006; Mus musculus). The assay is described as follows: cell-based or functional assay.
Assay [2] has as its target LbCas12a-Trex2 fusion (C-terminal Trex2; construct 25962) (Simian virus 40; Lachnospiraceae bacterium ND2006; Mus musculus). The assay is described as follows: cell-based or functional assay.

“LbCas12a-scTrex2 fusion (single-chained Trex2 homodimer at the C-terminus; construct 27433) (enzyme)”: in assay [1], the 1 kb Inversion (targeted fragment inversion in transgenic maize plants) was 1 plants and 2%; the targeted inversion frequency among the 13 plants in which both targets were edited is 7.7%.

As for “LbCas12a-Trex2 fusion (C-terminal Trex2; construct 25962) (enzyme)”, in assay [2], the 1 kb Inversion (targeted fragment inversion in transgenic maize plants) was 28 plants and 18.4%.
